Test results reported in patent publication US20240174741A1 (IMMUNOME, published 2024).
Each block holds one binder with its values, some of them ahead of it.

Assays:
[1] = biological target: T1, IL-18 (human, UniProt Q14116 1-193, limits assumed); assay: CDI HuProt native protein microarray, IL-1 family members
T1 sequence (looked up): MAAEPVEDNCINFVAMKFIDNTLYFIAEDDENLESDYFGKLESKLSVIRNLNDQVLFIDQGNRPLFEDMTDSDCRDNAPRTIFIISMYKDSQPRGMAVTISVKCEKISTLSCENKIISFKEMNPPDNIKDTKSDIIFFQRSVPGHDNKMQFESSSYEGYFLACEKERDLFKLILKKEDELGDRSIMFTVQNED
Procedure: (§1) To confirm specificity to IL-38, several lead candidate antibodies (CD1-M3, CD1-M8, NZB-M8) were analyzed in a High-Spec Cross-reactivity Assay using native HuProt arrays (CDI Laboratories). […] of antibody was incubated overnight in a cold room, washed, and probed with anti-human secondary antibodies. Fluorescence intensity (F635) as an indicator of binding was measured for each spot. CDI software quantified the specificity of the antibody to each spot based on a Z-score. Z-score is defined as [F635−(Average F635 on array)]/(Standard deviation of F635 on array). S-score is defined as the difference between the Z-score of a given protein and the Z-score of the next highest protein.

[2] = biological target: T2, IL-33 (human, UniProt O95760 1-270, limits assumed); assay: as above
T2 sequence (looked up): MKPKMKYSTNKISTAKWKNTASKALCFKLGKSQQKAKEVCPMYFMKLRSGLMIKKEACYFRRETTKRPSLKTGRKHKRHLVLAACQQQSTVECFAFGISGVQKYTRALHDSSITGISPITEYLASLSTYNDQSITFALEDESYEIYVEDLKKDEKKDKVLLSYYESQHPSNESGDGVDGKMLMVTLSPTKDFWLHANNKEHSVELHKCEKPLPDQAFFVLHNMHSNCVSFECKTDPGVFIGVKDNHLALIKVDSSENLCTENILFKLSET
Procedure: as §1

[3] = biological target: T3, human interleukin-38 (IL-38) (human, UniProt Q8WWZ1 1-152); assay: as above
T3 construct: The Adipogen protein is called full length; also called IL1F10/IL38; IL1F10
T3 sequence (looked up): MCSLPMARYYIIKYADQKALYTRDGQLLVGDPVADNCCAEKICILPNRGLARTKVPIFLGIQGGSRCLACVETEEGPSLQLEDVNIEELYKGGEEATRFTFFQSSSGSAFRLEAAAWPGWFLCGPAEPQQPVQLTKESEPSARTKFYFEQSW
Procedure: as §1

[4] = biological target: T4, IL-1α (human, UniProt P01583 1-271, limits assumed); assay: as above
T4 sequence (looked up): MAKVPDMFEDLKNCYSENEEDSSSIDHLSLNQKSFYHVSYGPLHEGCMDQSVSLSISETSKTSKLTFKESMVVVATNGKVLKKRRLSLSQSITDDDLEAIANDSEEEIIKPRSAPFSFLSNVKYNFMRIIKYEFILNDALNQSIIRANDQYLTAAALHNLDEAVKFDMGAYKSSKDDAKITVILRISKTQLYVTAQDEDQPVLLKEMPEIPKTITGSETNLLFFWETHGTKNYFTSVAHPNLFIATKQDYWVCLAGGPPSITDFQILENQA
Procedure: as §1

[5] = biological target: T5, IL-36b (human, UniProt Q9NZH7 1-164, limits assumed); assay: as above
T5 sequence (looked up): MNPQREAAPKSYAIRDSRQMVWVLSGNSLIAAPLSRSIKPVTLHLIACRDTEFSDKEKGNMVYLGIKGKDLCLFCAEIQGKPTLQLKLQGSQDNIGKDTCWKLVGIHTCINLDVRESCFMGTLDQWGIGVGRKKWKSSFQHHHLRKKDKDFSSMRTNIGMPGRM
Procedure: as §1

[6] = biological target: T6, IL-37 (human, UniProt Q9NZH6 1-218, limits assumed); assay: as above
T6 sequence (looked up): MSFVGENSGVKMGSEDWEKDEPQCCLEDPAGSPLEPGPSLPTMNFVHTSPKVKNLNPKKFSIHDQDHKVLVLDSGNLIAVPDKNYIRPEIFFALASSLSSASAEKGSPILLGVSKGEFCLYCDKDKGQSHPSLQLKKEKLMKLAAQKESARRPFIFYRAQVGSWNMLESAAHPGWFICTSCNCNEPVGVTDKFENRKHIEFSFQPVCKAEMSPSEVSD
Procedure: as §1

[7] = biological target: T7, IL-1Ra (human, UniProt P18510 26-177, limits assumed); assay: as above
T7 sequence (P18510 26-177 limits assumed): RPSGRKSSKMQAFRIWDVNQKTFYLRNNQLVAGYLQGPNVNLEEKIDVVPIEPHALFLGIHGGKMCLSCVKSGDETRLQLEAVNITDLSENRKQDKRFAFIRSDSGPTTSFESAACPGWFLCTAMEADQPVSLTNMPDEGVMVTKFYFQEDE
Procedure: as §1

[8] = biological target: T8, IL-36g (human, UniProt Q9NZH8 1-169, limits assumed); assay: as above
T8 sequence (looked up): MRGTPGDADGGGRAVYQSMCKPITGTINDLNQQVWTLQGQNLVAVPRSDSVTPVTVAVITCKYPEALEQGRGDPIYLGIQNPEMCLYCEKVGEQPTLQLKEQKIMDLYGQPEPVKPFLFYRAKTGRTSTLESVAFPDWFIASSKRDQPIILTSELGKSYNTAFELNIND
Procedure: as §1

[9] = biological target: T9, IL-36Ra (human, UniProt Q9UBH0 1-155, limits assumed); assay: as above
T9 sequence (looked up): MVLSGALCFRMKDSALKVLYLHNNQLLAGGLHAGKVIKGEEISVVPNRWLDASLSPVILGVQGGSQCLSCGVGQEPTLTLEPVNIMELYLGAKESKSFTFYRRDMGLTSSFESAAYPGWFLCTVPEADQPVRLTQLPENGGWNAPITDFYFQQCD
Procedure: as §1

[10] = biological target: T10, IL-1β (human, UniProt P01584 1-269, limits assumed); assay: as above
Procedure: as §1

[11] = biological target: T11, IL-36a (human, UniProt Q9UHA7 1-158, limits assumed); assay: as above
T11 sequence (looked up): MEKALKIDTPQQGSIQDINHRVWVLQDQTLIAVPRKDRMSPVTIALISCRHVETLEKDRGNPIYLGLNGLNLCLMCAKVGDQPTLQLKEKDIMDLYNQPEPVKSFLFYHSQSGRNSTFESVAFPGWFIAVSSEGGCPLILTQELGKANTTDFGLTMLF
Procedure: as §1

[12] = biological target: T1, IL-18; assay: CDI HuProt native protein microarray
Procedure: as §1

[13] = biological target: T2, IL-33; assay: CDI HuProt native protein microarray
Procedure: as §1

[14] = biological target: T4, IL-1α; assay: CDI HuProt native protein microarray
Procedure: as §1

[15] = biological target: T5, IL-36b; assay: CDI HuProt native protein microarray
Procedure: as §1

[16] = biological target: T6, IL-37; assay: CDI HuProt native protein microarray
Procedure: as §1

[17] = biological target: T7, IL-1Ra; assay: CDI HuProt native protein microarray
Procedure: as §1

[18] = biological target: T8, IL-36g; assay: CDI HuProt native protein microarray
Procedure: as §1

[19] = biological target: T9, IL-36Ra; assay: CDI HuProt native protein microarray
Procedure: as §1

[20] = biological target: T10, IL-1β; assay: CDI HuProt native protein microarray
Procedure: as §1

[21] = biological target: T11, IL-36a; assay: CDI HuProt native protein microarray
Procedure: as §1

[22] = biological target: T3, human interleukin-38 (IL-38); assay: SPR, IMM20130 captured on anti-human Fc CM5 chip, IL-38 as analyte, 25 C, 1:1 model
Procedure: Binding of IMM20130 to IL-38 (NovusBio, catalog number NBP2-22645) was quantified by surface plasmon resonance (SPR). Briefly, IMM20130 was diluted in SPR running buffer (10 mM HEPES, pH7.4, 150 mM NaCl, 0.0005% Tween-20, 0.2% bovine serum albumin) to final concentrations of 150 nM and 25 nM and captured at four different surface densities on an anti-human Fc coated CM5 sensor chip. Surface densities ranged from 600 to 3200 RU. IL-38 (NovusBio, catalog number NBP2-22645) was diluted in SPR running buffer to a concentration of 600 nM and a 3-fold dilution series was run across the four different IMM20130 density surfaces. Data were collected at 25° C. Data from all four surfaces were fitted to a 1:1 interaction model yielding the rate constants depicted in Table 2.

Z-score [1]: -0.016
Z-score [2]: -0.014
Z-score [3]: 142
Z-score [4]: -0.014
Z-score [5]: -0.01
Z-score [6]: -0.016
Z-score [7]: 0.003
Z-score [8]: -0.008
Z-score [9]: -0.019
Z-score [10]: -0.017
Z-score [11]: 0.012
binding result [12]: no binding
binding result [13]: no binding
binding result [14]: no binding
binding result [15]: no binding
binding result [16]: no binding
binding result [17]: no binding
binding result [18]: no binding
binding result [19]: no binding
binding result [20]: no binding
binding result [21]: no binding
B1: CD1-M8 (antibody, V domains shown)
VH: EVQLQQSGPELVKPGASVKMSCKASGYTFTDYYIHWVKQSHGKGLEWIGYIFPNNGGNGYSQKFKGKATMTVDKSSSTAYMELRSLTSEDSAVYYCARGGYDAGFVYWGQGTLVTVSA
VL: DIVMSQSPSSLAVSAGEKVTMSCKSSQSLFNSGARKNFLAWYQQKPGQSPKLLIYWASTRESGVPDRFTGSGSGTDFTLTISSVQAEDLAVYYCKQSYYLITFGAGTKLELK
notes: Mouse monoclonal from a CD-1 mouse hybridoma

Kd [22]: 13.6 nM
kon [22]: 4980 M⁻¹ s⁻¹
B2: IMM20130 (antibody, human IgG1, kappa, V domains shown)
VH: QVQLVQSGAEVKKPGASVKVSCKASGYSFINYGITWVRQVPGQGLEWMGWISAYNVKTKYAPKFQGRVNMNTDTSTRTAYMELRSLRSDDTAVYYCARDRDYDFWSGSAFDIWGQGTMVTVSS
VL: EIVLTQSPGTLSLSPGERVTLSCRASQSISTNYLAWYQQKPGQAPSLLIYGASSRATGIPDRFSGSGSGTDFTLTISRLEPEDFAVYYCQQYGSSPPRTFGQGTKLEIKR
notes: also called PR087-29B5 (parent hybridoma antibody)

Z-score [1]: -0.132
Z-score [2]: -0.17
Z-score [3]: 34
Z-score [4]: -0.147
Z-score [5]: -0.087
Z-score [6]: -0.113
Z-score [7]: -0.166
Z-score [8]: -0.143
Z-score [9]: -0.034
Z-score [10]: -0.143
Z-score [11]: 0.033
binding result [12]: no binding
binding result [13]: no binding
binding result [14]: no binding
binding result [15]: no binding
binding result [16]: no binding
binding result [17]: no binding
binding result [18]: no binding
binding result [19]: no binding
binding result [20]: no binding
binding result [21]: no binding
B3: NZB-M8 (antibody, V domains shown)
VH: EVQLQQSGPELVKPGASVKISCKASGYSFTGYYMHWVKQSPEKSLEWIGVINPNTGGITYNQKFKAKATLNVDKSSSTAYMQLKSLTSEDSAVYYCARSMGVWGQGTLVTVSA
VL: DIVMTQAAPSVSVTPGESVSISCRSSKSLLHSNGNTYLYWFLQRPGQSPQLLIYRMSNLASGVPDRFSGSGSGTAFTLRISRVEAEDVGVYYCMQYLEYPFTFGSGTKLEIK
notes: Mouse monoclonal from an NZB/w mouse hybridoma
